The target of the assay is hMOG isoform 1 on live GL261 cells (human, UniProt Q16653). The assay can be described thus: flow cytometry on cells. Background: In flow cytometry, cells or beads pass a laser one at a time.

One molecule from paper PMC11642901 (bioRxiv, 2024) can be followed below.

hMOG isoform 1 on live GL261 cells, sequence (Q16653 30-247): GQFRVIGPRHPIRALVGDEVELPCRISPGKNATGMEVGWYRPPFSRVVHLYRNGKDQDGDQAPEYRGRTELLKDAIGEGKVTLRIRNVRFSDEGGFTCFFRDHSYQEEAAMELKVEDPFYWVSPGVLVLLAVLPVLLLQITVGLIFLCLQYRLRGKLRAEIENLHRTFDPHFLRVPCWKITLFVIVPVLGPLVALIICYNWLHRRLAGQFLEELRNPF

B1: anti-MOG IgG1 clone 8–18C5 (antibody, V domains shown)
VH: EVKLHESGAGLVKPGASVEISCKATGYTFSSFWIEWVKQRPGHGLEWIGEILPGRGRTNYNEKFKGKATFTAETSSNTAYMQLSSLTSEDSAVYYCATGNTMVNMPYWGQGTTVTVSS
VL: DIELTQSPSSLAVSAGEKVTMSCKSSQSLLNSGNQKNYLAWYQQKPGLPPKLLIYGASTRESGVPDRFTGSGSGTDFTLTISSVQAEDLAVYYCQNDHSYPLTFGAGTKLEIK
Regarding B1, the binding result is on record as “binds”.
